Measured values published in US20070224189A1 (published 2007).

target: human F158 FcγRIIIa as used in SPR (human, UniProt P08637 17-208); assay: SPR
Sequence (P08637 17-208): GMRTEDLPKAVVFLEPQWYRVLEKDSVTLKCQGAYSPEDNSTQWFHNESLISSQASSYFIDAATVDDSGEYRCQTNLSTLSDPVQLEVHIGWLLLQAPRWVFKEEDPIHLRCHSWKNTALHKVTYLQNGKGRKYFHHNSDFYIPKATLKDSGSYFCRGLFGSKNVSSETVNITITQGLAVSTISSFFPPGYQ

Row | Kd [nM] | Binder
1 | 156 | S298A/E333A/K334A alemtuzumab (antibody) heavy: not shown

target: His-tagged V158 FcγRIIIa (human, UniProt P08637 17-208); assay: SPR, receptor on chip
Sequence (P08637 17-208 F176V): as the sequence (P08637 17-208) above, with F160V counted along it

Row | Kd [nM] | Binder
2 | 39 | S298A/E333A/K334A alemtuzumab (antibody) heavy: not shown

target: extracellular region of human V158 FcγRIIIa fused with glutathione S-Transferase (GST) (human, UniProt P08637 17-208); assay: AlphaScreen competition
Sequence (P08637 17-208 F176V): as the sequence (P08637 17-208) above, with F160V counted along it

Row | FcγRIIIa Fold [fold vs WT] | Binder
3 | 0.1 | F241E/F243Y/V262T/V264R/I332E alemtuzumab (antibody) heavy: DKTHTCPPCPAPELLGGPSVELYPPKPKDTLMISRTPEVTCTVRDVSHEDPEVKFNWYVDGVEVHNAKTKPREEQYNSTYRVVSVLTVLHQDWLNGKEYKCKVSNKALPAPEEKTISKAKGQPREPQVYTLPPSRDELTKNQVSLTCLVKGFYPSDIAVEWESNGQPENNYKTTPPVLDSDGSFFLYSKLTVDKSRWQQGNVFSCSVMHEALHNHYTQKSLSLSPGK
4 | 1.87 | P230A/E233D/I332E trastuzumab (antibody) heavy: DKTHTCPPCAAPDLLGGPSVFLFPPKPKDTLMISRTPEVTCVVVDVSHEDPEVKFNWYVDGVEVHNAKTKPREEQYNSTYRVVSVLTVLHQDWLNGKEYKCKVSNKALPAPEEKTISKAKGQPREPQVYTLPPSRDELTKNQVSLTCLVKGFYPSDIAVEWESNGQPENNYKTTPPVLDSDGSFFLYSKLTVDKSRWQQGNVFSCSVMHEALHNHYTQKSLSLSPGK
5 | 17.7 | S239D/A330Y/I332E/V264T trastuzumab (antibody) heavy: DKTHTCPPCPAPELLGGPDVFLFPPKPKDTLMISRTPEVTCVVTDVSHEDPEVKFNWYVDGVEVHNAKTKPREEQYNSTYRVVSVLTVLHQDWLNGKEYKCKVSNKALPYPEEKTISKAKGQPREPQVYTLPPSRDELTKNQVSLTCLVKGFYPSDIAVEWESNGQPENNYKTTPPVLDSDGSFFLYSKLTVDKSRWQQGNVFSCSVMHEALHNHYTQKSLSLSPGK
6 | 7.04 | S239D/A330Y/I332E/L235D trastuzumab (antibody) heavy: DKTHTCPPCPAPELDGGPDVFLFPPKPKDTLMISRTPEVTCVVVDVSHEDPEVKFNWYVDGVEVHNAKTKPREEQYNSTYRVVSVLTVLHQDWLNGKEYKCKVSNKALPYPEEKTISKAKGQPREPQVYTLPPSRDELTKNQVSLTCLVKGFYPSDIAVEWESNGQPENNYKTTPPVLDSDGSFFLYSKLTVDKSRWQQGNVFSCSVMHEALHNHYTQKSLSLSPGK
7 | 64.1 | S239D/A330Y/I332E/K326E trastuzumab (antibody) heavy: DKTHTCPPCPAPELLGGPDVFLFPPKPKDTLMISRTPEVTCVVVDVSHEDPEVKFNWYVDGVEVHNAKTKPREEQYNSTYRVVSVLTVLHQDWLNGKEYKCKVSNEALPYPEEKTISKAKGQPREPQVYTLPPSRDELTKNQVSLTCLVKGFYPSDIAVEWESNGQPENNYKTTPPVLDSDGSFFLYSKLTVDKSRWQQGNVFSCSVMHEALHNHYTQKSLSLSPGK
8 | 59.1 | S239D/I332E/A330I trastuzumab (antibody) heavy: DKTHTCPPCPAPELLGGPDVFLFPPKPKDTLMISRTPEVTCVVVDVSHEDPEVKFNWYVDGVEVHNAKTKPREEQYNSTYRVVSVLTVLHQDWLNGKEYKCKVSNKALPIPEEKTISKAKGQPREPQVYTLPPSRDELTKNQVSLTCLVKGFYPSDIAVEWESNGQPENNYKTTPPVLDSDGSFFLYSKLTVDKSRWQQGNVFSCSVMHEALHNHYTQKSLSLSPGK
9 | 22.4 | S239D/A330Y/I332E/L234I trastuzumab (antibody) heavy: DKTHTCPPCPAPEILGGPDVFLFPPKPKDTLMISRTPEVTCVVVDVSHEDPEVKFNWYVDGVEVHNAKTKPREEQYNSTYRVVSVLTVLHQDWLNGKEYKCKVSNKALPYPEEKTISKAKGQPREPQVYTLPPSRDELTKNQVSLTCLVKGFYPSDIAVEWESNGQPENNYKTTPPVLDSDGSFFLYSKLTVDKSRWQQGNVFSCSVMHEALHNHYTQKSLSLSPGK

Second part, the binder before the results:

Row | Binder | FcγRIIIa Fold [fold vs WT]
10 | S239D/A330Y/I332E/V240I trastuzumab (antibody) heavy: DKTHTCPPCPAPELLGGPDIFLFPPKPKDTLMISRTPEVTCVVVDVSHEDPEVKFNWYVDGVEVHNAKTKPREEQYNSTYRVVSVLTVLHQDWLNGKEYKCKVSNKALPYPEEKTISKAKGQPREPQVYTLPPSRDELTKNQVSLTCLVKGFYPSDIAVEWESNGQPENNYKTTPPVLDSDGSFFLYSKLTVDKSRWQQGNVFSCSVMHEALHNHYTQKSLSLSPGK | 28
11 | S239D/D265Y/N297D/I332E alemtuzumab (antibody) heavy: DKTHTCPPCPAPELLGGPDVFLFPPKPKDTLMISRTPEVTCVVVYVSHEDPEVKFNWYVDGVEVHNAKTKPREEQYDSTYRVVSVLTVLHQDWLNGKEYKCKVSNKALPAPEEKTISKAKGQPREPQVYTLPPSRDELTKNQVSLTCLVKGFYPSDIAVEWESNGQPENNYKTTPPVLDSDGSFFLYSKLTVDKSRWQQGNVFSCSVMHEALHNHYTQKSLSLSPGK | 0.02
12 | F243L/V262I/V264W alemtuzumab (antibody) heavy: DKTHTCPPCPAPELLGGPSVFLLPPKPKDTLMISRTPEVTCIVWDVSHEDPEVKFNWYVDGVEVHNAKTKPREEQYNSTYRVVSVLTVLHQDWLNGKEYKCKVSNKALPAPIEKTISKAKGQPREPQVYTLPPSRDELTKNQVSLTCLVKGFYPSDIAVEWESNGQPENNYKTTPPVLDSDGSFFLYSKLTVDKSRWQQGNVFSCSVMHEALHNHYTQKSLSLSPGK | 0.02
13 | F241L/F243L/V262I/V264I alemtuzumab (antibody) heavy: DKTHTCPPCPAPELLGGPSVLLLPPKPKDTLMISRTPEVTCIVIDVSHEDPEVKFNWYVDGVEVHNAKTKPREEQYNSTYRVVSVLTVLHQDWLNGKEYKCKVSNKALPAPIEKTISKAKGQPREPQVYTLPPSRDELTKNQVSLTCLVKGFYPSDIAVEWESNGQPENNYKTTPPVLDSDGSFFLYSKLTVDKSRWQQGNVFSCSVMHEALHNHYTQKSLSLSPGK | 0.09
14 | F241W/F243W/V262A/V264A alemtuzumab (antibody) heavy: DKTHTCPPCPAPELLGGPSVWLWPPKPKDTLMISRTPEVTCAVADVSHEDPEVKFNWYVDGVEVHNAKTKPREEQYNSTYRVVSVLTVLHQDWLNGKEYKCKVSNKALPAPIEKTISKAKGQPREPQVYTLPPSRDELTKNQVSLTCLVKGFYPSDIAVEWESNGQPENNYKTTPPVLDSDGSFFLYSKLTVDKSRWQQGNVFSCSVMHEALHNHYTQKSLSLSPGK | 0.04
15 | F241Y/F243Y/V262T/V264T alemtuzumab (antibody) heavy: DKTHTCPPCPAPELLGGPSVYLYPPKPKDTLMISRTPEVTCTVTDVSHEDPEVKFNWYVDGVEVHNAKTKPREEQYNSTYRVVSVLTVLHQDWLNGKEYKCKVSNKALPAPIEKTISKAKGQPREPQVYTLPPSRDELTKNQVSLTCLVKGFYPSDIAVEWESNGQPENNYKTTPPVLDSDGSFFLYSKLTVDKSRWQQGNVFSCSVMHEALHNHYTQKSLSLSPGK | 0.05
